According to patent US9187525B2, “Methods of treating ophthalmic diseases using NPR-B agonists” (Shire Orphan Therapies GmbH, dated 2015):
Numbered stars: 1 amine (or outer) side, 2 acyl side, 3 side chain; on linkers, the order of the positions; unused ones are H or OH. Square brackets hold non-standard residues; d marks the D form. Primed or numbered codes have the meaning given here. Ends that are not written are not given here. * marks the point of attachment. 2857‑Ac = 2-((2S,3R,4R,5R)-2,3,4,5,6-pentahydroxyhexylamino)acetic acid, O=C(CN(C[C@H](O)[C@@H](O)[C@H](O)[C@H](O)CO)[*:1])[*:2]; Sni = (S)-nipecotic acid, O=C([C@H]1CCCN([*:1])C1)[*:2]; pT = C[C@@H](OP(=O)(O)O)[C@H](N)C(=O)O; Cya = N[C@@H](CS(=O)(=O)O)C(=O)O; Hyp = O=C(O)[C@@H]1C[C@@H](O)CN1; pS = N[C@@H](COP(=O)(O)O)C(=O)O; Aoc(2) = CCCCCC[C@H](N)C(=O)O; NMeL = CN[C@@H](CC(C)C)C(=O)O; Hyp(2581) = not defined here; orn(Me2) = not defined here; NHexGly = CCCCCCNCC(=O)O; Octanoyl = CCCCCCCC(=O)*; 2137 = not defined here; 3816 = not defined here; dHgl = not defined here; Che = not defined here; leu = not defined here; Occ = octanoic acid; Dha = C=C(N)C(=O)O

T1: natriuretic peptide receptor-B (human)
T1 chain: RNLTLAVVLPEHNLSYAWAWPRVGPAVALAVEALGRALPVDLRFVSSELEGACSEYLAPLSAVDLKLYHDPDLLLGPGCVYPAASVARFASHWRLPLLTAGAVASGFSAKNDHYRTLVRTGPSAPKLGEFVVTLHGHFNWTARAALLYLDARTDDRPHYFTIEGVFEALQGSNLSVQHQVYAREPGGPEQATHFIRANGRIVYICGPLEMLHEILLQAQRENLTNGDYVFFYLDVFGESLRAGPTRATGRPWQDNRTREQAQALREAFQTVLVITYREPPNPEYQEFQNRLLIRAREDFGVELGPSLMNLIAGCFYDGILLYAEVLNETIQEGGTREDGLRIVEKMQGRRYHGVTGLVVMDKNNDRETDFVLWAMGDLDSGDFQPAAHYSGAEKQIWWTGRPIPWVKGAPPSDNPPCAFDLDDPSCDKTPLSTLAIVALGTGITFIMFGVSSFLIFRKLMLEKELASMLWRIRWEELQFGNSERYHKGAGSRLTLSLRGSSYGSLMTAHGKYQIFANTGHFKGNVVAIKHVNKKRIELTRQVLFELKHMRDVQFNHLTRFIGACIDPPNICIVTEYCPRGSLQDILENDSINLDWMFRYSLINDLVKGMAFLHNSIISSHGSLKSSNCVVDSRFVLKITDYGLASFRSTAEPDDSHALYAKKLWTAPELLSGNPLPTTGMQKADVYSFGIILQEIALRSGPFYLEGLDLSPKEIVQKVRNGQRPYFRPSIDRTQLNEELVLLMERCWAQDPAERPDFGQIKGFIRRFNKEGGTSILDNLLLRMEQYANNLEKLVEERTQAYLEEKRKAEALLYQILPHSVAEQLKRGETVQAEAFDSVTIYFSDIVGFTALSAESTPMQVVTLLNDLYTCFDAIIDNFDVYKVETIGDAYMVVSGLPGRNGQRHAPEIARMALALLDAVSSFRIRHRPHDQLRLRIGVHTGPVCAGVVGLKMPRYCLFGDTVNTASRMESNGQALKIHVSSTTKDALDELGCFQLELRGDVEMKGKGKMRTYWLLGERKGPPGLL

B1: JAL-1900 (peptide)
peptide: H-KP[Aoc(2)][Sni]FLL[Hyp][NMeL]DRI-NH2
modifications: not fully specified (residue 6); printed as H-Lys-Pro-Hgl-Sni-Phe-leu-Leu-Hyp-Nml-Asp-Arg-Ile-NH2
B2: JAL-0748 (peptide)
peptide: Octanoyl-[dA][dA]FGLKLDR[2137]
modifications: reading uncertain; also: printed as Occ-ala-ala-Phe-Gly-Leu-Lys-Leu-Asp-Arg-2137
B3: JAL-1918 (peptide)
peptide: [Occ][Sni]F[orn(Me2)]L[Hyp][NMeL][pT]R[Che]
modifications: reading uncertain; also: printed as Occ-Sni-Phe-orn(Me2)-Leu-Hyp-Nml-Pth-Arg-Che
B4: JAL-1917 (peptide)
peptide: Octanoyl-[Sni]FLL[Hyp][NMeL][pS]R[Che]
modifications: not fully specified (some residues); printed as Occ-Sni-Phe-leu-Leu-Hyp-Nml-Pse-Arg-Che; reading uncertain
B5: JAL-1901 (peptide)
peptide: [2857‑Ac][Aoc(2)][Sni]FLL[Hyp][NMeL]DRI-NH2
modifications: not fully specified (residue 5); printed as (2857-Ac)-Hgl-Sni-Phe-leu-Leu-Hyp-Nml-Asp-Arg-Ile-NH2
B6: JAL-1916 (peptide)
peptide: [Occ][Sni]F[orn(Me2)]L[Hyp][NMeL][pS]R[Che]
modifications: reading uncertain; also: printed as Occ-Sni-Phe-orn(Me2)-Leu-Hyp-Nml-Pse-Arg-Che
B7: JAL-0749 (peptide)
peptide: Octanoyl-[dA][dA]FGLKLDR[3816]
modifications: reading uncertain; also: printed as Occ-ala-ala-Phe-Gly-Leu-Lys-Leu-Asp-Arg-3816
B8: JAL-1928 (peptide)
peptide: [Occ][Sni]F[leu]LX[NMeL]DRI-NH2
modifications: not fully specified (residue 6); printed as Occ-Sni-Phe-leu-Leu-Hyp(Asp(-))-Nml-Asp-Arg-Ile-NH2
B9: JAL-1912 (peptide)
peptide: Octanoyl-[Sni]FLL[Hyp][NMeL][pS]RI-NH2
modifications: not fully specified (some residues); printed as Occ-Sni-Phe-leu-Leu-Hyp-Nml-Pse-Arg-Ile-NH2
B10: JAL-1924 (peptide)
peptide: [Occ][Sni]F[orn(Me2)]L[Hyp][NMeL]TRI-NH2
modifications: reading uncertain; also: printed as Occ-Sni-Phe-orn(Me2)-Leu-Hyp-Nml-Thr-Arg-Ile-NH2
B11: JAL-1931 (peptide)
peptide: [Occ][Sni]F[orn(Me2)]L[Hyp][NMeL]DRI-OH
modifications: reading uncertain; also: printed as Occ-Sni-Phe-orn(Me2)-Leu-Hyp-Nml-Asp-Arg-Ile-OH
B12: JAL-1907 (peptide)
peptide: [NHexGly][Sni]FLL[Hyp][NMeL]DRI-NH2
modifications: not fully specified (residue 4); printed as (1625-Ac)-Sni-Phe-leu-Leu-Hyp-Nml-Asp-Arg-Ile-NH2
B13: JAL-1913 (peptide)
peptide: [Occ][Sni]F[orn(Me2)]L[Hyp][NMeL][pT]RI-NH2
modifications: reading uncertain; also: printed as Occ-Sni-Phe-orn(Me2)-Leu-Hyp-Nml-Pth-Arg-Ile-NH2
B14: JAL-1899 (peptide)
peptide: H-K[dHgl][Sni]FLL[Hyp][NMeL]DRI-NH2
modifications: not fully specified (residue 5); printed as H-Lys-hgl-Sni-Phe-leu-Leu-Hyp-Nml-Asp-Arg-Ile-NH2; reading uncertain
B15: JAL-1921 (peptide)
peptide: [Occ][Sni]F[orn(Me2)]L[Hyp][NMeL]SRI-NH2
modifications: reading uncertain; also: printed as Occ-Sni-Phe-orn(Me2)-Leu-Hyp-Nml-Ser-Arg-Ile-NH2
B16: JAL-1898 (peptide)
peptide: H-K[Aoc(2)][Sni]FLL[Hyp][NMeL]DRI-NH2
modifications: not fully specified (residue 5); printed as H-Lys-Hgl-Sni-Phe-leu-Leu-Hyp-Nml-Asp-Arg-Ile-NH2
B17: JAL-1923 (peptide)
peptide: [Occ][Sni]F[orn(Me2)]L[Hyp][NMeL][Cya]RI-NH2
modifications: reading uncertain; also: printed as Occ-Sni-Phe-orn(Me2)-Leu-Hyp-Nml-Cya-Arg-Ile-NH2
B18: JAL-1929 (peptide)
peptide: [Occ][Sni]F[leu]L[Hyp(2581)][NMeL]DRI-NH2
modifications: reading uncertain; also: printed as Occ-Sni-Phe-leu-Leu-Hyp(2581)-Nml-Asp-Arg-Ile-NH2

Target: T1, natriuretic peptide receptor-B
Experiment: cell-based or functional assay

Binder | EC50 group, cGMP in GTM-3 cells [µM]
B1 | ≤ 1
B2 | ≤ 15
B3 | ≤ 5
B4 | ≤ 15
[Occ][Sni]F[leu]L[Hyp][NMeL]DRI-OH (reading uncertain; also: printed as Occ-Sni-Phe-leu-Leu-Hyp-Nml-Asp-Arg-Ile-OH) [JAL-1930] | ≤ 5
[Occ][Sni]F[leu]L[Hyp][NMeL]SRI-NH2 (reading uncertain; also: printed as Occ-Sni-Phe-leu-Leu-Hyp-Nml-Ser-Arg-Ile-NH2) [JAL-1920] | ≤ 5
[Occ][Sni]F[leu]L[Hyp][NMeL][pT]R[Che] (reading uncertain; also: printed as Occ-Sni-Phe-leu-Leu-Hyp-Nml-Pth-Arg-Che) [JAL-1919] | ≤ 5
B5 | ≤ 5
[Occ][Sni]F[leu]L[Hyp][NMeL][Cya]RI-NH2 (reading uncertain; also: printed as Occ-Sni-Phe-leu-Leu-Hyp-Nml-Cya-Arg-Ile-NH2) [JAL-1922] | ≤ 5
B6 | ≤ 15
B7 | ≤ 15
B8 | ≤ 5
B9 | ≤ 15
B10 | ≤ 5
B11 | ≤ 5
B12 | ≤ 5
[Occ][Sni]F[leu]L[Hyp][NMeL]TRI-NH2 (reading uncertain; also: printed as Occ-Sni-Phe-leu-Leu-Hyp-Nml-Thr-Arg-Ile-NH2) [JAL-1932] | ≤ 1
[Occ][Sni]F[Dha]L[Hyp][NMeL]DRI-NH2 [JAL-1915_2] | ≤ 5
B13 | ≤ 15
B14 | ≤ 5
B15 | ≤ 15
B16 | ≤ 5
B17 | ≤ 5
B18 | ≤ 5
